What was measured:
[1] = biological target: H1N1 hemagglutinin (Cat No.: Z03181, GenScript), full-length recombinant HA (His-Tag) (influenza A virus H1N1 (strain not stated)); assay: MST; fluorescently labelled His-HA (NT647-HA) held constant, peptide in 16 1:1 serial dilutions from 50 µM; assay buffer PBS; 10 min incubation at rt; standard-treated capillaries; high MST power, 10% LED power; Monolith NT.115pico; triplicate
[2] = biological target: H1N1 hemagglutinin (Cat No.: Z03181, GenScript), full-length recombinant HA (His-Tag) (influenza A virus H1N1 (strain not stated)); assay: SPR
[3] = biological target: H1N1 hemagglutinin (Cat No.: Z03181, GenScript), full-length recombinant HA (His-Tag) (influenza A virus H1N1 (strain not stated)); assay: SPR; remark: listed apart in the source

Binder | Kd [1] | Kd [2] | Kd [3]
Ac-SKAS-NH2 [peptide 5 (Ac-SKAS-NH2)] | 7010 nM | 1030 nM | –
Ac-ALDC-NH2 [peptide 7 (Ac-ALDC-NH2)] | 21200 nM | 27.7 nM | –
Ac-SADC-NH2 [peptide 8 (Ac-SADC-NH2)] | 6380 nM | 2190 nM | –
Ac-SLDA-NH2 [peptide 10 (Ac-SLDA-NH2)] | 2690 nM | 343 nM | –
Ac-SAHS-NH2 [peptide 4 (Ac-SAHS-NH2)] | 8.2 nM | 3.5 nM | 3.57 nM
Ac-AKHS-NH2 [peptide 3 (Ac-AKHS-NH2)] | 3120 nM | 2700 nM | –
Ac-SLAC-NH2 [peptide 9 (Ac-SLAC-NH2)] | 5.8 nM | 2570 nM | –
Ac-SKHA-NH2 [peptide 6 (Ac-SKHA-NH2)] | 11400 nM | 6750 nM | –
